Broadly, the Ki is a dissociation constant, usually derived from enzyme kinetics or from competition with a known ligand. What is called Kd is the constant that tells how readily two partners part at equilibrium. As usually defined, the stoichiometry N is the number of molecules, sites or subunits per partner or assembly.

This note sets out measurements from PMC4158700.

For assay [1], the target named is factor XIa with Ile183, Arg184 and Asp185 replaced with alanine (fXIa-Ala183-185) (human) (UniProt P03951). Description: numerical fitting of full progress curves of fIX cleavage.
The target of assay [2] is factor XIa with Arg184 replaced with Gly (fXIa-Gly184) (human) (UniProt P03951). The assay is described as above.
For assay [3] the target is unchanged. Description: inhibition of chromogenic substrate.
Assay [4] has as its target recombinant wild type factor XIa (fXIaWT) (human) (UniProt P03951). Description: inhibition of chromogenic substrate.
In assay [5] the target is plasma fXIa with the active site irreversibly blocked by FPR-CMK (UniProt P03951). Description: SPR. For orientation: In SPR one partner is held on a chip, and binding of the other changes the refractive index at the surface.
Assay [6] addresses recombinant factor XI zymogen with Arg184 replaced with Gly (fXI-Gly184) (human). Description: non-reducing SDS-PAGE.
Assay [7] concerns the target factor XIa with Ile183, Arg184 and Asp185 replaced with alanine (fXIa-Ala183-185) (human) (UniProt P03951).
Assay [8] deals with factor XIa with Arg184 replaced with Gly (fXIa-Gly184) (human) (UniProt P03951).
Assay [9] concerns the target recombinant wild type factor XI zymogen (fXIWT) (human). Description: non-reducing SDS-PAGE.

For “factor IXaβ (fIXaβ), fIX cleaved at Arg145-Ala146 and Arg180-Val181 (enzyme)”, the Ki in assay [1] turned out to be 290 nM; in assay [2] it was 500 nM; in assay [3], 190 nM; in [4], 90 nM.
The substance “recombinant wild type factor IX (fIXWT) (from UniProt P00740 47-461) (natural protein)” came in with a Kd in assay [5] of 350 nM.
For “recombinant factor XI zymogen with Arg184 replaced with Gly (fXI-Gly184) (natural protein)”, in [6], the stoichiometry N worked out at 2.
As for “factor IXα (fIXα), fIX cleaved at the Arg145-Ala146 bond (natural protein)”, the values for the Km2 for cleavage after Arg180 (KinTek fit of progress curves) in [7] and in [8] were 3 µM and 0.2 µM, respectively. The Ki1 (k-3/k3, fIXα released after the cleavage at Arg145) was found to be 6 µM in [1] and 0.4 µM in assay [2].
In the case of “recombinant wild type factor XI zymogen (fXIWT) (natural protein)”, in assay [9], the stoichiometry N came to 2.
